Experimental data published in the supplement of paper PMC10567573.

B1: ZNF649 (parent)
chain: YHTGKTPFVCPECGQPCSQKSGLI
B2: ZNF449 (parent)
chain: FQEYDTDCEVFRQRFRQFQYREAA

Variants of: B1
Experiment: protein stability index of a GFP-peptide fusion (GPS, HEK-293T) (PSI 1-6); higher = more stable
Settings: c terminus: a fixed tail appended
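Also: lentivirally expressed fusions sorted by FACS into six bins by GFP to DsRed ratio, PSI derived from sequencing read proportions per bin multiplied by bin number.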

Variant | protein stability index
Y1W | 2.48
Y1V | 3.5
Y1H | 3.46
Y1L | 2.51
Y1C | 3.52
Y1G | 3.8
Y1I | 2.69
Y1E | 3.71
Y1K | 2.72
Y1S | 3.72
Y1P | 3.28
Y1A | 3.92
Y1R | 2.69
Y1M | 1.65
Y1T | 3.06
Y1N | 3.08
Y1D | 3.98
Y1Q | 2.47
H2D | 3.69
H2N | 2.39
H2W | 2.06
H2Y | 2.42
H2P | 2.15
H2E | 3.55
H2L | 2.2

Variant | protein stability index
H2K | 2.76
H2G | 1.98
H2I | 2.36
H2M | 2.51
H2A | 1.99
H2Q | 2.28
H2F | 2.25
H2R | 2.1
H2V | 1.96
T3N | 2.03
T3H | 2.78
T3I | 1.56
T3A | 2.57
T3Y | 1.27
T3W | 1.48
T3K | 2.87
T3L | 1.76
T3C | 2.38
T3V | 2.46
T3R | 2.23
T3D | 2.68
T3E | 2.85
T3P | 1.61
G4A | 1.49

Variants of: B2
Experiment: as above
Settings: c terminus: a fixed tail appended

Variant | protein stability index
F11R | 4.69
F11L | 2.54
F11W | 2.37
F11K | 3.14
F11E | 3.51
F11M | 3.27
F11V | 3.68
F11Y | 2.78
F11N | 3.57
F11H | 3.45
F11C | 2.99
F11D | 3.95
F11P | 3.33
F11S | 2.94
F11G | 3.6
F11I | 2.72
F11Q | 3.24
F11T | 3.15
A23H | 2.54
A23L | 2.51
A23C | 2.65
A23P | 2.39
A23F | 2.15
A23R | 2.97

Variant | protein stability index
A23I | 1.7
A23W | 1.61
A23D | 2.73
A23T | 2.47
A23E | 3.28
A23Q | 2.89
A23S | 2.11
A23M | 2.43
A23N | 2.7
A23Y | 1.95
A23V | 2.15
A23K | 3.31
E9T | 1.89
E9V | 1.79
E9S | 1.54
E9W | 2.02
E9Y | 1.27
Q19G | 2.67
Q19F | 1.87
Q19Y | 2.22
Q19K | 2.44
Q19I | 2.53
Q19W | 2.35
Q19C | 2.02

Variant | protein stability index
Q19A | 2.81
Q19S | 2.11
Q19V | 2.48
Q19H | 2.6
Q19N | 2.29
Q19T | 2.3
Q19D | 2.18
Q19P | 2.16
Q19R | 2.65
Q19M | 2
Q19E | 2.35
Y20Q | 3.73
Y20E | 3.52
Y20F | 2.57
Y20L | 2.83
Y20M | 3.03
Y20N | 3.48
Y20R | 2.88
Y20A | 3.12
Y20I | 3.37
Y20D | 3.49
Y20C | 2.2
Y20W | 1.47
Y20T | 3.46

Variant | protein stability index
Y20S | 3.15
Y20K | 3.21
Y20G | 3.31
Y20H | 3.27
Y20V | 3.27
Y20P | 2.81
V10F | 2.86
V10M | 2.63
V10T | 2.49
V10Y | 2.62
V10W | 2.13
V10Q | 3.27
V10I | 2.5
V10S | 2.78
V10E | 3.08
V10H | 3
V10L | 2.3
V10K | 2.35
V10D | 3.02
V10G | 2.9
V10P | 2.92
V10A | 2.2
V10R | 2.37
V10N | 2.67

Variant | protein stability index
V10C | 2.52
E22V | 2.12
E22Q | 2.17
E22K | 2.75
E22R | 1.65
E22A | 2.43
E22I | 1.99
E22P | 1.72
E22Y | 1.95
E22N | 2.39
E22F | 2.69
E22C | 2.39
E22G | 2.35
E22S | 2.07
E22L | 2.22
E22M | 1.83
E22H | 2.36
E22T | 2.62
E22D | 2.91
R12A | 3.29
R12M | 2.24
R12K | 2.38
R12W | 1.94
R12T | 2.41

Variant | protein stability index
R12Q | 2.61
R12L | 1.97
R12S | 2.53
R12E | 2.48
R12P | 2.35
R12Y | 2.06
R12I | 2.14
R12F | 2.54
R12D | 3.31
R12H | 2.3
R12G | 2.57
R12N | 2.27
R12V | 2.21
R12C | 1.71
F15H | 3.33
F15L | 2.42
F15V | 2.98
F15A | 3.02
F15G | 2.85
F15C | 2.83
F15I | 2.44
F15Y | 2.17
F15R | 2.76
F15P | 3

Variant | protein stability index
F15T | 2.66
F15D | 3.43
F15Q | 3.01
F15K | 2.22
F15M | 2.84
F15E | 2.92
F15N | 2.88
F15S | 2.57
F15W | 2.62
R14Q | 2.32
R14T | 2.75
R14N | 2.62
R14V | 1.65
R14C | 2.23
R14I | 1.9
R14L | 2.37
R14K | 3.16
R14S | 2.29
R14D | 2.17
R14H | 2.76
R14M | 3.51
R14F | 2.01
R14W | 2.36
R14G | 2.67

Variant | protein stability index
R14Y | 2.35
R14P | 1.8
R14A | 2.83
R14E | 2.69
Q17G | 2.22
Q17D | 3.13
Q17K | 2.42
Q17H | 2.44
Q17R | 2.31
Q17Y | 2.86
Q17P | 1.97
Q17S | 2.39
Q17I | 2.6
Q17L | 2.75
Q17M | 2.7
Q17W | 2.17
Q17C | 2
Q17F | 1.71
Q17A | 2.67
Q17T | 2.51
Q17E | 2.85
Q17V | 2.3
Q17N | 2.44
A24R | 3.04

Variant | protein stability index
A24W | 1.93
A24E | 2.95
A24N | 2.65
A24H | 1.96
A24T | 2.35
A24S | 2.55
A24Q | 3.13
A24M | 2.13
A24G | 2.51
A24P | 2.77
A24K | 2.76
A24Y | 2.33
A24L | 2.64
A24F | 2.13
A24D | 2.8
A24V | 2.13
A24I | 2.08
A24C | 2.96
Q13T | 2.41
Q13V | 2.53
Q13H | 2.53
Q13L | 1.67
Q13Y | 1.75
Q13N | 2.58

Variant | protein stability index
Q13R | 2.04
Q13M | 1.67
Q13C | 2.34
Q13D | 2.6
Q13I | 1.94
Q13A | 2.72
Q13F | 1.87
Q13E | 2.51
Q13K | 2.22
Q13P | 1.03
Q13S | 2.4
Q13W | 2.42
Q13G | 1.81
R16A | 2.51
R16S | 2.21
R16D | 2.6
R16M | 3.38
R16V | 2.44
R16T | 2.28
R16Q | 2.78
R16W | 2.2
R16K | 2.98
R16H | 1.98
R16E | 2.27

Variant | protein stability index
R16F | 2.44
R16Y | 2.4
R16P | 2.11
R16N | 2.46
R16G | 2.44
R16L | 2.59
R16I | 2.31
R16C | 2.07
F18R | 2.43
F18M | 3.07
F18H | 2.4
F18N | 2.38
F18I | 2.86
F18A | 3.02
F18G | 2.4
F18K | 1.76
F18Y | 2.59
F18E | 2.95
F18C | 1.96
F18S | 2.1
F18T | 3.11
F18W | 3.11
F18P | 2.43
F18D | 1.79

Variant | protein stability index
F18Q | 3.56
F18L | 4.05
R21F | 2.91
R21V | 2.51
R21P | 2.44
R21Y | 2.54
R21W | 1.75
R21D | 3.13
R21L | 1.91
R21Q | 2.96
R21H | 2.53
R21G | 3.14
R21S | 2.77
R21E | 3.16
R21N | 2.62
R21T | 2.86
R21I | 2.71
R21K | 2.65
R21M | 2.69
R21A | 2.44
R21C | 2.92
